From patent publication WO2023190851A1

These substances were tested against SARS-CoV-2 Spike RBD, His Tag (B.1.1.529/Omicron) (SARS-CoV-2, Omicron B.1.1.529 (BA.1) lineage) (UniProt P0DTC2).
With ADG2 (antibody) the binding inhibition rate (%) at 2 μg/ml was < 30%. With AZD1061 (antibody) the binding inhibition rate (%) at 2 μg/ml was < 30%. In the case of AZD8895 (antibody), the binding inhibition rate (%) at 2 μg/ml is reported as < 30%. In the case of LY_CoV16 (antibody), the binding inhibition rate (%) at 2 μg/ml is reported as < 30%. With LY_CoV555 (antibody) the binding inhibition rate (%) at 2 μg/ml was < 30%. REGN10933 (antibody) was tested, and the binding inhibition rate (%) at 2 μg/ml was < 30%. With REGN10987 (antibody) the binding inhibition rate (%) at 2 μg/ml was < 30%. For S309 (antibody), the binding inhibition rate (%) at 2 μg/ml was < 30%.
